Assay results reported in the supplement of paper PMC12855868.

B1: library; numbered along this chain (parent)
chain: MAAAGGARLLRAASAVLGGPAGRWLHHAGSRAGSSGLLRNRGPGGSAEASRSLSVSARARSSSEDKITVHFINRDGETLTTKGKVGDSLLDVVVENNLDIDGFGACEGTLACSTCHLIFEDHIYEKLDAITDEENDMLDLAYGLTDRSRLGCQICLTKSMDNMTVRVPETVADARQSIDVGKTS

Variants of: B1
Test: scaled log2 fold change in cell abundance, elesclomol vs control (0 = silent mean, 1 = nonsense mean) (scaled log2 ratio); higher = higher viability under elesclomol (loss of FDX1 cuproptosis function)
Conditions: glucose 10 mM
[1] = with ABC1 FDX1 KO, elesclomol 5 nM, 14 days
[2] = with HEK293T FDX1 KO, elesclomol 40 nM, 11 days
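Further: variant abundance is its share of total variant reads in each endpoint sample, from next-generation sequencing of the integrated ORF PCR-amplified out of genomic DNA.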

Variant	scaled log2 fold change [1]	scaled log2 fold change [2]
C112K	1.12	1.35
C112W	1.17	0.573
C112P	1.17	0.87
C112S	0.988	0.991
C112H	0.978	1.42
C112Q	1.01	1.1
C112I	0.989	1.33
C112E	1.07	0.951
C112A	1.16	1.03
C112R	1.08	1.29
C112F	1.02	1.25
A111C	-0.264	2.92
A111Q	-0.0306	-0.173
A111M	-0.315	1.22
A111N	-0.0992	0.0245
A111F	-1.42	0.414
A111I	-0.421	-0.0909
A111D	-0.231	0.497
A111P	1.2	1.01
A111S	0.397	-0.445
A111W	0.0852	0.773
A111K	-0.155	0.541
A111Y	-1.01	0.214
A111E	-0.193	1.05

Variant	scaled log2 fold change [1]	scaled log2 fold change [2]
A111L	0.263	0.862
A111T	0.105	-0.0821
A111R	-0.24	
A111H	-0.198	
A111V	-0.00247	-0.469
A111G	-0.0345	0.231
H116G	0.0557	-0.405
H116F	0.69	0.87
H116V	0.0823	-0.296
H116M	-1.26	0.245
H116K	0.464	-0.0313
H116Q	-0.185	0.198
H116C	0.0577	0.973
H116P	0.152	0.891
H116S	-0.0363	0.435
H116A	0.129	0.404
H116L	-0.55	-0.291
H116Y	0.484	1.02
H116T	0.317	-0.824
H116E	-0.124	0.106
H116N	-0.0564	-0.554
H116W	-0.0982	0.125
H116D	0.16	-0.115
H116I	-1.23	0.162

Variant	scaled log2 fold change [1]	scaled log2 fold change [2]
H116R	-0.042	0.647
C115W	1.1	1.36
C115N	0.976	1.34
C115G	1.06	1.1
C115F	1	1.25
C115P	1.1	1.51
C115A	1.07	1.02
C115M	1.03	1.19
C115R	1.02	1.68
C115L	1.09	1.15
C115H	0.953	1.29
C115D	1.16	0.979
C115S	1.09	1.13
C115Q	0.93	1.07
C115E	1.27	0.99
C115T	1.13	0.783
C115Y	1.1	0.829
C115I	1.04	0.907
C115V	1.07	1.37
C115K	1.02	0.763
T114L	0.463	0.0445
T114P	1.01	0.956
T114N	0.0748	1.03
T114K	0.766	0.199

Variant	scaled log2 fold change [1]	scaled log2 fold change [2]
T114S	-0.416	0.997
T114D	0.795	0.798
T114H	-0.00732	0.334
T114F	0.685	0.235
T114Y	0.838	0.412
T114V	0.906	0.208
T114M	0.114	0.455
T114W	1.03	0.814
T114E	0.811	1.09
T114G	-1.41	-0.22
T114A	-0.0113	0.0983
T114R	0.517	0.411
T114Q	-0.112	0.0599
T114I	1.02	1.01
T114C	0.158	0.117
T109Q	-0.041	
T109K	-0.296	-0.481
T109N	-0.076	0.456
T109V	-0.651	
T109Y	-0.087	
T109P	0.947	0.81
T109L	-0.315	0.377
T109M	-0.267	1.01
T109W	-0.657	0.253

Variant	scaled log2 fold change [1]	scaled log2 fold change [2]
T109S	-1.08	-0.288
T109R	-0.153	1.07
E120M	-0.223	0.0763
E120A	0.194	-0.0676
E120I	-0.276	0.524
E120L	0.202	0.102
E120C	0.227	-0.059
E120Q	-0.192	0.816
E120T	0.0538	-0.0827
E120N	0.109	0.835
E120W	0.298	-0.149
E120H	-0.0176	-0.794
E120S	0.0771	-1.62
E120F	0.141	-0.0751
E120D	0.203	0.978
E120P	0.108	0.193
E120G	0.367	-0.0815
E120V	0.256	-0.849
E120K	0.0347	0.542
E120Y	0.267	-0.449
E120R	0.278	-0.473
